Test results: patent publication US20060148705A1 (Regeneron, published 2006)

Assays:
human VEGF165 [1] = molecular target: T1, human VEGF165 (human, UniProt P15692-4 27-191); test: half-life of dissociation from hVEGF165, as described in WO/0075319
T1 construct: also called hVEGF165

human VEGF165 [2] = molecular target: T1, human VEGF165; test: kinetic dissociation rate from hVEGF165, as described in WO/0075319
human VEGF165 [3] = molecular target: T1, human VEGF165; test: BIAcore 2000; fusion protein captured on anti-VEGFR1 mAb, human VEGF165 (0-2 nM) injected
Procedure: (§1) Binding assays were carried out by first capturing around 100 RU of each fusion protein construct to the immobilized anti-VEGFR1 mAb, after which various concentrations (0-2 nM) of human VEGF165 were injected over the captured fusion protein surface at a flow rate of 100 μl/min for 2 minutes. The fusion protein constructs binding kinetic parameters including ka (1/Ms) (association rate constant), kd (1/s) (dissociation rate constant) and KD (dissociation equilibrium constant) were determined using the BIA evaluation 4.1 computer program (Biacore, Inc.), and t½ was determined using formula 0.693/kd (dissociation rate).

human VEGF165 [4] = molecular target: T1, human VEGF165; test: BIAcore 2000; t½ = 0.693/kd
Procedure: as §1

T1 sequence (P15692 other isoform, or with tags, fused parts or gaps limits assumed): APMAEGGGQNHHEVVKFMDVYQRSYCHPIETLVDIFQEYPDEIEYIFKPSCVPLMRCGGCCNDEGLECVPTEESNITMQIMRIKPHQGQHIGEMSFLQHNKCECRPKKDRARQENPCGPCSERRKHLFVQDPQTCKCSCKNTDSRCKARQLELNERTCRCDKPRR

T1/2 (human VEGF165 [1]) [min]	koff (human VEGF165 [2]) [s⁻¹]	Kd (human VEGF165 [3]) [pM]	koff (human VEGF165 [3]) [s⁻¹]	kon (human VEGF165 [3]) [M⁻¹ s⁻¹]	t½ (human VEGF165 [4]) [h]	Binder
1.68	0.00674	–	–	–	–	recombinant monomeric R1R2-myc myc his (receptor, not shown: small tags and cut ends, Monomer with a C-terminal myc-myc-His tag that is not given in letters and is left out., Monomer; also called R1R2-myc myc his monomer) GRPFVEMYSEIPEIIHMTEGRELVIPCRVTSPNITVTLKKFPLDTLIPDGKRIIWDSRKGFIISNATYKEIGLLTCEATVNGHLYKTNYLTHRQTNTIIDVVLSPSHGIELSVGEKLVLNCTARTELNVGIDFNWEYPSSKHQHKKLVNRDLKTQSGSEMKKFLSTLTIDGVTRSDQGLYTCAASSGLMTKKNSTFVRVHEK
–	–	1.76	8e-06	4.54e+06	24.1	fusion protein R1R2R1R2 (SEQ ID NO:24), single chain VEGF mini-trap (receptor, Monomer, secreted from CHO K1 cells; also called R1R2-R1R2 VEGF mini-trap; (R1R2)2) SDTGRPFVEMYSEIPEIIHMTEGRELVIPCRVTSPNITVTLKKFPLDTLIPDGKRIIWDSRKGFIISNATYKEIGLLTCEATVNGHLYKTNYLTHRQTNTIIDVVLSPSHGIELSVGEKLVLNCTARTELNVGIDFNWEYPSSKHQHKKLVNRDLKTQSGSEMKKFLSTLTIDGVTRSDQGLYTCAASSGLMTKKNSTFVRVHEKGPGRPFVEMYSEIPEIIHMTEGRELVIPCRVTSPNITVTLKKFPLDTLIPDGKRIIWDSRKGFIISNATYKEIGLLTCEATVNGHLYKTNYLTHRQTNTIIDVVLSPSHGIELSVGEKLVLNCTARTELNVGIDFNWEYPSSKHQHKKLVNRDLKTQSGSEMKKFLSTLTIDGVTRSDQGLYTCAASSGLMTKKNSTFVRVHEK
